Laboratory results published in patent US20200206266A1 (JULIUS MAXIMILIANS UNIVERSIT T W RZBURG, published 2020).

T1: FLT3 with internal tandem duplication (FLT3-ITD) (human, UniProt P36888 27-543)
T1 sequence (looked up): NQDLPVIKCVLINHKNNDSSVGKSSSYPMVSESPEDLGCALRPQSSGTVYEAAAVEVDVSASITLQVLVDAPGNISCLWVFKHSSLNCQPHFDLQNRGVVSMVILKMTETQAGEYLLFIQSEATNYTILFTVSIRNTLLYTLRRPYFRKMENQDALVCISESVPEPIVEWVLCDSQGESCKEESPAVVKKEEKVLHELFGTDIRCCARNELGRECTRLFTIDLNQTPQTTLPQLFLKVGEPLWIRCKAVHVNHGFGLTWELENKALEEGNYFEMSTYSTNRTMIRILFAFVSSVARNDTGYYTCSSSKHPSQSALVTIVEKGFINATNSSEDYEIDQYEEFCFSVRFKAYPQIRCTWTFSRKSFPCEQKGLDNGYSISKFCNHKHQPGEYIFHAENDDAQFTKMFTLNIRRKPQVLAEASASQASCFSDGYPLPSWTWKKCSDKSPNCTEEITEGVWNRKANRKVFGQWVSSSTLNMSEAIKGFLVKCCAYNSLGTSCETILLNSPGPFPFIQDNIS

T2: FMS-like tyrosine kinase 3 (FLT3), wild-type (human, UniProt P36888 27-993)
T2 construct: whole, on cells; also called CD135; wt FLT3
T2 sequence (looked up): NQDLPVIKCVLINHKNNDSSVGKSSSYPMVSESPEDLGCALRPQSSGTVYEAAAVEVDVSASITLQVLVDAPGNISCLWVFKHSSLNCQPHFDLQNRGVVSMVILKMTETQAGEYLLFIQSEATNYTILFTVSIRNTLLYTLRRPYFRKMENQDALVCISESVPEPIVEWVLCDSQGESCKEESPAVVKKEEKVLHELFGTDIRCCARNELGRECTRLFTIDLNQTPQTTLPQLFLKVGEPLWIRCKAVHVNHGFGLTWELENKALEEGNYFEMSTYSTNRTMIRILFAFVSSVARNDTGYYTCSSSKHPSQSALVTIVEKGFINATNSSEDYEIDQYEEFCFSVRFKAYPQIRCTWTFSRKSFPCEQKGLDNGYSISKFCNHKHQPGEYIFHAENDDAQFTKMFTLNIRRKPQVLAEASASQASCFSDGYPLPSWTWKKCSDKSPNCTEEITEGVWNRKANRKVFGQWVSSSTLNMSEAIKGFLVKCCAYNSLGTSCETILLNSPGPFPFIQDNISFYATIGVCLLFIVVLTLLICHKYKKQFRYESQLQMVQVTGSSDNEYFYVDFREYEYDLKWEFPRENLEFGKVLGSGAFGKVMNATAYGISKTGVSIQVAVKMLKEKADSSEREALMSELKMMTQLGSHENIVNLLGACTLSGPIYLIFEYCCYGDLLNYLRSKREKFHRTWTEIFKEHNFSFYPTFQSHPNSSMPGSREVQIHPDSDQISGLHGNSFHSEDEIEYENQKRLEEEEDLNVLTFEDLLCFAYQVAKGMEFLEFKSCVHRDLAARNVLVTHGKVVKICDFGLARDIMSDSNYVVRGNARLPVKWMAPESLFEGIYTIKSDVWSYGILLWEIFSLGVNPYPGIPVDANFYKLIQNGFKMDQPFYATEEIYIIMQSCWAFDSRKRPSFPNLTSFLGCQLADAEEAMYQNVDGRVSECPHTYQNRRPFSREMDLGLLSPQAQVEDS

B1: anti-FLT3 BV10 mAb (Biolegend) (antibody, V domains shown)
VH: QVQLKQSGPGLVQPSQSLSITCTVSGFSLTNYGLHWVRQSPGKGLEWLGVIWSGGSTDYNAAFISRLSISKDNSKSQVFFKMNSLQADDTAIYYCARKGGIYYANHYYAMDYWGQGTSVTVSS
VL: DIVMTQSPSSLSVSAGEKVTMSCKSSQSLLNSGNQKNYMAWYQQKPGQPPKLLIYGASTRESGVPDRFTGSGSGTDFTLTISSVQAEDLAVYYCQNDHSYPLTFGAGTKLELKR
B2: BV10 FLT3 CAR (other)
chain: QVQLKQSGPGLVQPSQSLSITCTVSGFSLTNYGLHWVRQSPGKGLEWLGVIWSGGSTDYNAAFISRLSISKDNSKSQVFFKMNSLQADDTAIYYCARKGGIYYANHYYAMDYWGQGTSVTVSSGGGGSGGGGSGGGGSDIVMTQSPSSLSVSAGEKVTMSCKSSQSLLNSGNQKNYMAWYQQKPGQPPKLLIYGASTRESGVPDRFTGSGSGTDFTLTISSVQAEDLAVYYCQNDHSYPLTFGAGTKLELKRESKYGPPCPPCPMFWVLVVVGGVLACYSLLVTVAFIIFWVRSKRSRGGHSDYMNMTPRRPGPTRKHYQPYAPPRDFAAYRSRVKFSRSADAPAYQQGQNQLYNELNLGRREEYDVLDKRRGRDPEMGGKPRRKNPQEGLYNELQKDKMAEAYSEIGMKGERRRGKGHDGLYQGLSTATKDTYDALHMQALPPR
B3: 4G8 FLT3 CAR (other)
chain: QVQLQQPGAELVKPGASLKLSCKSSGYTFTSYWMHWVRQRPGHGLEWIGEIDPSDSYKDYNQKFKDKATLTVDRSSNTAYMHLSSLTSDDSAVYYCARAITTTPFDFWGQGTTLTVSSGGGGSGGGGSGGGGSDIVLTQSPATLSVTPGDSVSLSCRASQSISNNLHWYQQKSHESPRLLIKYASQSISGIPSRFSGSGSGTDFTLSINSVETEDFGVYFCQQSNTWPYTFGGGTKLEIKRESKYGPPCPPCPMFWVLVVVGGVLACYSLLVTVAFIIFWVRSKRSRGGHSDYMNMTPRRPGPTRKHYQPYAPPRDFAAYRSRVKFSRSADAPAYQQGQNQLYNELNLGRREEYDVLDKRRGRDPEMGGKPRRKNPQEGLYNELQKDKMAEAYSEIGMKGERRRGKGHDGLYQGLSTATKDTYDALHMQALPPR
B4: mouse-anti-human-FLT3 mAb (clone 4G8, BD Pharmagin, BD Biosciences) (antibody, V domains shown)
VH: QVQLQQPGAELVKPGASLKLSCKSSGYTFTSYWMHWVRQRPGHGLEWIGEIDPSDSYKDYNQKFKDKATLTVDRSSNTAYMHLSSLTSDDSAVYYCARAITTTPFDFWGQGTTLTVSS
VL: DIVLTQSPATLSVTPGDSVSLSCRASQSISNNLHWYQQKSHESPRLLIKYASQSISGIPSRFSGSGSGTDFTLSINSVETEDFGVYFCQQSNTWPYTFGGGTKLEIKR
notes: Bought, fluorochrome-conjugated mouse antibody, used with a mouse IgG1 isotype control; also called anti-FLT3 mAb (4G8); anti-FLT3 4G8 mAb

Columns and labels:
[1] = target: T1, FLT3 with internal tandem duplication …; experiment: cell-based or functional assay
[2] = target: T2, FMS-like tyrosine kinase 3 (FLT3), …; experiment: flow cytometry, staining of THP-1 cells (FLT3 wild-type)
From the text: (a) Flow cytometric analysis of FLT3 expression on AML cell lines (MOLM-13, THP-1, MV4;11) and primary AML blasts (pt #1 and #2).

Row | Binder | IFN-γ production, MOLM-13^creno against MOLM-13^native [1] [fold] | IFN-γ production, MOLM-13^mido against MOLM-13^native [1] [fold] | IFN-γ production, MOLM-13^quiza against MOLM-13^native [1] [fold] | IL-2 production, MOLM-13^creno against MOLM-13^native [1] [fold] | IL-2 production, MOLM-13^mido against MOLM-13^native [1] [fold] | IL-2 production, MOLM-13^quiza against MOLM-13^native [1] [fold] | increase in cytolytic activity, MOLM-13^creno against MOLM-13^native, 2.5:1 E:T [1] [fold] | increase in cytolytic activity, MOLM-13^creno against MOLM-13^native, 5:1 E:T [1] [fold] | increase in cytolytic activity, MOLM-13^mido against MOLM-13^native, 2.5:1 E:T [1] [fold] | increase in cytolytic activity, MOLM-13^mido against MOLM-13^native, 5:1 E:T [1] [fold] | increase in cytolytic activity, MOLM-13^quiza against MOLM-13^native, 2.5:1 E:T [1] [fold] | increase in cytolytic activity, MOLM-13^quiza against MOLM-13^native, 5:1 E:T [1] [fold] | proliferation index, MOLM-13^mido against MOLM-13^native [1] [fold] | other results
1 | B1 | – | – | – | – | – | – | – | – | – | – | – | – | – | ADCC, percentage of MV4;11 cells eliminated, crenolanib pre-treatment against none [1]: 3 fold; ADCC, percentage of MV4;11 cells eliminated, midostaurin pre-treatment against none [1]: 2 fold; ADCC, percentage of MV4;11 cells eliminated, quizartinib pre-treatment against none [1]: 3.5 fold
2 | B2 | 1.6 | 2.1 | 1.2 | 2 | 6.6 | 1.9 | 1.8 | 1.6 | 1.6 | 1.3 | 3.8 | 1.6 | 1.8 | IFN-γ production, CAR-T vs MOLM-13^native [1]: 1480 pg/mL; proliferation index, MOLM-13^creno against MOLM-13^native [1]: 1.3 fold; proliferation index, MOLM-13^quiza against MOLM-13^native [1]: 1.2 fold
3 | B3 | 1.4 | 2.3 | 1.4 | 3.9 | 12.4 | 1.9 | 2.5 | 2 | 1.5 | 1.4 | 17.7 | 1.6 | 1.8 | % proliferation, CAR-T vs MOLM-13^native [1]: 31.3%
4 | B4 | – | – | – | – | – | – | – | – | – | – | – | – | – | binding result [2]: binds
